Kd data for one molecule are collected here from article PMC12768131, “Common cold embecovirus imprinting primes broadly neutralizing antibody responses to SARS-CoV-2 S2” (The Journal of experimental medicine, 2025).

This assay has as its target T1, full-length SARS-CoV-2 spiketrimer (HP-GSAS-Mut7) (SARS-CoV-2, ancestral (Wuhan-Hu-1), stabilised).
T1 construct: also called full-length spike trimer; full-length spike
Description: BLI. The conditions noted are these: both partners purified.

B1: R125–61 Fab (Fab, V domains shown)
VH: QVQLQESGPGLVKPSETLSLICTVSGGSITRDFWSWVRQPPGKGLEWIGYGYYRGSTNYNPSLESRVTISVDTSKNQFSLKLTSVTAADTAVYYCARETAHNWIDTWGQGILVTVSS
VL: DIVMTQSPESLALSLGERATINCKSSQTVSFTSNNKNYLAWYQQKPRQPPKLLFYWASTRHSGVPDRFSGSGSGTDFTLTINSLQAEDVAVYFCHQYFSTPWTFGQGTKVEI
The molecule B1 gave a Kd of 4.7 nM. This counts as single-digit nanomolar.
